One protein from ChEMBL document CHEMBL1151808, “Substrate promiscuity of the cyclic dipeptide prenyltransferases from Aspergillus fumigatus ( section sign)” (J Nat Prod, 2009) can be followed below.

Substrate in data set [1]: N[C@@H](Cc1c[nH]c2ccccc12)C(=O)O
As to the kind of experiment: (§1) Activity at Aspergillus fumigatus FtmPT1 by HPLC analysis.

Substrate in data set [2]: O=C1N[C@@H](Cc2c[nH]c3ccccc23)C(=O)N2CCC[C@@H]12
The data set is described as §1.

B1: Tryprostatin B synthase ftmPT1 (Aspergillus fumigatus), Q4WAW7 (protein)
chain: MPPAPPDQKPCHQLQPAPYRALSESILFGSVDEERWWHSTAPILSRLLISSNYDVDVQYKYLSLYRHLVLPALGPYPQRDPETGIIATQWRSGMVLTGLPIEFSNNVARALIRIGVDPVTADSGTAQDPFNTTRPKVYLETAARLLPGVDLTRFYEFETELVITKAEEAVLQANPDLFRSPWKSQILTAMDLQKSGTVLVKAYFYPQPKSAVTGRSTEDLLVNAIRKVDREGRFETQLANLQRYIERRRRGLHVPGVTADKPPATAADKAFDACSFFPHFLSTDLVEPGKSRVKFYASERHVNLQMVEDIWTFGGLRRDPDALRGLELLRHFWADIQMREGYYTMPRGFCELGKSSAGFEAPMMFHFHLDGSQSPFPDPQMYVCVFGMNSRKLVEGLTTFYRRVGWEEMASHYQGNFLANYPDEDFEKAAHLCAYVSFAYKNGGAYVTLYNHSFNPVGDVSFPN
In the case of B1, the Km (in general, the substrate concentration at which the rate is half of its maximum) in data set [1] is 820 µM; in data set [2] it was 55 µM. For the same protein, the turnover number (kcat) (commonly the number of substrate molecules converted per active site and unit of time at saturation) in data set [1] came to 0.12 s⁻¹; in data set [2] it was 5.57 s⁻¹.
